Experimental data taken from article PMC5065051, “Genetic and Biochemical Approaches for In Vivo and In Vitro Assessment of Protein Oligomerization: The Ryanodine Receptor Case Study” (Journal of Visualized Experiments : JoVE, 2016).

Columns and labels:
[1] = molecular target: BT8, RyR2 extreme C-terminal domain (bait) (human); experiment: two-hybrid; GAL4 system in yeast; quantitative liquid culture β-Gal assay (ONPG), 30 °C; normalized against the positive control pVA3 + pTD1
[2] = molecular target: the molecule itself; experiment: cross-linking; glutaraldehyde (0.0025% v/v, 0-60 min, RT) on HEK293 cell homogenate treated with dithiothreitol; SDS-PAGE and blot with Ab^cMyc

Molecule	β-Gal activity, percent of the positive control (pVA3 + pTD1) [1]	stoichiometry N [2]
RyR2 N-terminal fragment (RyR2 residues 1 - 906), GAL4 fusions for yeast two-hybrid (from UniProt Q92736 1-906) (domain or fragment)	< 10%	
RyR2 N-terminus domain (residues 1 - 906), cMyc-tagged (BT4L) or HA-tagged (AD4L), expressed in HEK293 (domain or fragment, human, UniProt Q92736 1-906, looked up, ryanodine receptor 2 (RyR2), human, residues 1-906; Two copies of the same stretch, each with ONE tag: in the co-IP cMyc-BT4L and HA-AD4L were co-expressed; in the cross-linking cMyc-BT4L was expressed alone; also called cMyc-BT4L; source: HEK293, transiently transfected (calcium phosphate), in lysate or homogenate) MADGGEGEDEIQFLRTDDEVVLQCTATIHKEQQKLCLAAEGFGNRLCFLESTSNSKNVPPDLSICTFVLEQSLSVRALQEMLANTVEKSEGQVDVEKWKFMMKTAQGGGHRTLLYGHAILLRHSYSGMYLCCLSTSRSSTDKLAFDVGLQEDTTGEACWWTIHPASKQRSEGEKVRVGDDLILVSVSSERYLHLSYGNGSLHVDAAFQQTLWSVAPISSGSEAAQGYLIGGDVLRLLHGHMDECLTVPSGEHGEEQRRTVHYEGGAVSVHARSLWRLETLRVAWSGSHIRWGQPFRLRHVTTGKYLSLMEDKNLLLMDKEKADVKSTAFTFRSSKEKLDVGVRKEVDGMGTSEIKYGDSVCYIQHVDTGLWLTYQSVDVKSVRMGSIQRKAIMHHEGHMDDGISLSRSQHEESRTARVIRSTVFLFNRFIRGLDALSKKAKASTVDLPIESVSLSLQDLIGYFHPPDEHLEHEDKQNRLRALKNRQNLFQEEGMINLVLECIDRLHVYSSAAHFADVAGREAGESWKSILNSLYELLAALIRGNRKNCAQFSGSLDWLISRLERLEASSGILEVLHCVLVESPEALNIIKEGHIKSIISLLDKHGRNHKVLDVLCSLCVCHGVAVRSNQHLICDNLLPGRDLLLQTRLVNHVSSMRPNIFLGVSEGSAQYKKWYYELMVDHTEPFVTAEATHLRVGWASTEGYSPYPGGGEEWGGNGVGDDLFSYGFDGLHLWSGCIARTVSSPNQHLLRTDDVISCCLDLSAPSISFRINGQPVQGMFENFNIDGLFFPVVSFSAGIKVRFLLGGRHGEFKFLPPPGYAPCYEAVLPKEKLKVEHSREYKQERTYTRDLLGPTVSLTQAAFTPIPVDTSQIVLPPHLERIREKLAENIHELWVMNKIELGWQYGP		4
